Results: the RNAGym collection of RNA variant scans (doi:10.1073/pnas.2313332121)

B1: TPR t1 (parent)
chain: GACCAAUCUGCCCUCAGAGCUCGAGAACAUCUUCGGAUGCAGAGGAGGCAGGCUUCGGUGGCGCGAUAGCGCCAACGUCCUCAACCUCCAAUGCAUCCCACCACAUGAUGAUGCCUGAAGAGCCUUGGUUUUUUG

Variants of: B1
Assay: polymerase ribozyme fitness, log enrichment relative to wild type (log ratio); higher = more active; in vitro selection for triplet polymerase activity
Procedure, shortened: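 PCR was used to build mutant libraries for each subunit of a heterodimeric triplet polymerase ribozyme, which were then transcribed. A single in vitro selection round, in triplicate, used a frozen incubation at −7 °C and recovered extended constructs by gel excision, streptavidin beads and RT-PCR. Fitness is the logarithm of genotype enrichment relative to wild-type enrichment, averaged over replicates with inverse-variance weights. The logarithm is base 2, and after Illumina sequencing only genotypes with ≥10 input reads and ≥1 read per output were kept.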

Variant	polymerase ribozyme fitness (log ratio)
G35U C70U C72U G120C	-6.33
A37G C88A G113U	-5.31
A37U A100C A103U	-5.74
G36C G48A G60C G61C	-3.64
G36C G60A C98U	-2.39
A37U A50U G52A	-2.94
G36A A121U G128A	0.119
A37U A43C	-1.99
A37G G60U C80A	-5.24
A37G C76G G113A	-1.57
A37G G69U C99A C114A	-3.09
G35C G63U A74U A90G C123G G127C	-6.64
G36U A121G	0.373
G36A G77C	-1.72
G35U C40U G61A C124U	-4.87
C34U C56U	-4.1
C34G C73A	-5.35
G36C U59A G69C C88A C101A	-2.89
C34G C53U C73U G113C C114G	-8.55
C34G G120C	-4.78
A37C C104A	-1.22
G35U G77C C123G	-5.04
G36A C49A G110C	-5.65
C34A U78C	-2.79

Variant	polymerase ribozyme fitness (log ratio)
G36C G113U U129A	-4.27
C34U G71A	-5.88
A37G C72G C73U A74U	-6.02
G35U G113A	-6.27
G36U A46U G52U G120A	-2.3
G36U A91U	-2.67
C34U C70U	-5.65
G36U A111U	-3.05
G36C G57C G61A U106C G113U	-3.7
A37G G113C G135A	-2.17
G36A G52C A95G G113A	-3.73
G36A C56A	-1.03
G36U C70G C89U	-5.64
G36U C56A	-1.83
A37C G44A A46C G47U U59C	-6.19
A37G C104G	-6.69
A37G C73A C82A A83G	-2.53
G35A C64U U87G	-4.86
C34G A74U A90C U112G	-6.64
A37U C49U C64U C114U	-3.02
G36A G42A C72U	-4.34
C34G C89U	-7.42
C34G G69U C123A	-2.45
G36U C72G	-1.68

Variant	polymerase ribozyme fitness (log ratio)
G36U C101A	-2.53
A37C G60U C82U A83U U87A	-2.34
G36U C56U C115G	-3.57
A37G G44C	-0.927
G35C U81A U109A C114A C123G	-5.16
A37U C76U	-0.3
A37U A43C G71U C79U U112A U116G U134C	-6.04
G36C G45C C98U	-3.33
A37G G117C	-2.52
G36C A46G G63U C85U C114U	-5.92
A37C A103C	-4.98
G36U G47U	-2.97
A37U A90C U96A	-0.653
C34A G48A U59C C101A	-5.32
G36U C86G	-2.22
G36U U81A	-2.11
C34A G113C G117C	-6.74
C34U G63U	-4.85
C34U G63A	-3.64
A37U A46U C64U C115A	-3.03
A37G C73G U109A	-7.2
G36A G44A G77U A84U	-2.98
C34U U59A U106A U109A G120A	-5.08
G36U G61A	-1.47

Variant	polymerase ribozyme fitness (log ratio)
G36A C88A	-1.76
G36A C88G	-2.65
G36C U78G	-1.1
A37G C49U C82A U87C U106G U133G	-2.13
C34A C104U	-2.35
A37G A121C	2.11
C34A G48C G77A	-2.78
G36A U59A C89G	-3.6
G35C C53U C56G G120A	-2.61
A37C C53U C123U	0.761
G35A C40G C98U C123G	-0.89
G36U G63U C80U A84C	-4.1
G35U A100U	-5.66
A37C G45C C72U C104G C115G	-7.48
G36A C97G U112G C115U	-5.56
C34U C85A A111U	-5.33
G36A A43C C73G	-4.51
C34G C99U U130A	-4.6
G36U U130G	-2.05
G35U U112A	-2.86
A37C G44A C53A G63C C124A	-3.21
G35U C70U C73A	-7.04
G36A C53A U54G G120C	0.74
A37U A50C G63U C79A C80G G107U G117C	-6.62

Variant	polymerase ribozyme fitness (log ratio)
A37C G39U C56U	-2.66
C34U G44C U87A C89G C115A	-4.92
C34A G61A U112A C115U	-6.79
G36C C76A U106A G110A	-4.36
G36U G60U A111U	-2.87
C34A G48U A121U	-1.3
C34U G63C A111C U132A	-4.98
C34A U54A G69U A121G	1.52
G36U U55G C89G G113U	-4.27
C34U C64U	-3.93
G36C A100U A111G	-1.04
G35A G52C C86U	-6.34
C34U C40U G42A A43G C104A U109A G135A	-4.93
C34A C101G U129A	-4.66
G36A G61U	0.0512
A37G C53A C56A A90U A91C G113C	-2.55
A37C A43U C49G	-3.33
C34A G69U	-0.154
C34A G69C	-4.71
G36C C40U G48U U125A	-3.35
G36A A66C G120U	-1.74
A37C C64U C115G	-1.35
G35C G39U	-5.8
G36C G47A C56A G71A U78G C115U A118G	-6.68

Variant	polymerase ribozyme fitness (log ratio)
A37C G48C C53U U54A G60C C88A G93A C115U A121G	-6.81
G35U G63A U67G C88A C124A G127C U132A	-7.2
C34A G60A C72G C88U	-6.11
G36U U125A U133A	-2.46
A37G U55A C73U A83C A90U U125A	-2.61
G36C C70G	-5.05
C34G A43G C53A G71A A111C C123G	-7.9
G36A C98U	-3.49
G35A G61C	-5.94
G35A G57U A74U	-4.21
G36C C56G C72U	-2.79
G36C G60U A118U	-0.591
G36U C40U A43C A46U G48C	-5.24
A37G G52A	-1.1
G36U C102A C123U	-2.11
G35U G69U C123A C124A	-1
G36U G63A C97U	-1.35
G36U G51C G69U	-2.55
A37G C89A C102A C124U	-3.6
A37G G69U	-1.08
A37C A46C C124G	0.609
A37U A105C	-3.01
G36C C56U	-0.42
G35C G63A C73A	-5.71

Variant	polymerase ribozyme fitness (log ratio)
G35A A74C C101U	-4.16
C34A U54G C94U	-2.75
A37C A121U	1.62
G35A G69C U87G	-5.37
G36C C104U	-1.1
C34G A111G U129G	-6.92
C34A G48U G61C C72G C94G A119G U133C	-3.16
G35A C72G U112C	-2.35
C34U G52U G69C C79G A100G C114U	-5.24
G36U C72G C124U	-0.0425
G35U G69A	-7.16
C34U C101A	-4.07
G36U U96A	-2.69
A37U C40U A50C G51C A74U U109A U131G	-5.36
C34U G61A	-4.7
A37G C49G C64G A111U U126G	-6.45
G36C G42U C56G A74C G107U U112A C114A	-7.54
G35C C97A	-5.43
G35C C88A	-5.61
C34U G47A	-4.25
A37C G63U G122U	-2.81
C34A U55G G77A	-4.67
G35U G71U	-5.03
